Results published in patent US20210403547A1 (Eli Lilly, published 2021).
Values belong to the binder of their own block, whether it stands above or below them.

Columns and labels:
[1] = target: Mouse Epigen (mouse (Mus musculus), UniProt Q924X1 53-103); assay: SPR, 25 C
[2] = target: T1, Mouse TGF-alpha (mouse (Mus musculus), UniProt P48030 39-88); assay: SPR (Biacore), antibody captured on chip, ligand injected, 1:1 Langmuir fit, 25 C
T1 construct: also called mouse TGFα
Procedure: (§1) Biacore T2000 instrument (BIAcore® AB, Upsala, Sweden), reagents and Biacore T2000 Evaluation Software Ver 4.1 are used for the Surface Plasmon Resonance analysis. A CMS chip is prepared using manufacturer's EDC/NHS amine coupling method. The surfaces of all four flow cells are activated by injecting a 1:1 mixture of EDC/NHS for 7 minutes at 10 μL/min. […] Un-reacted sites are blocked with a 7 minute injection of ethanolamine at 10 μL/min. Injections of 3×20 seconds of glycine pH 1.5 at 30 μL/min are used to remove non-covalently associated protein. The running buffer is HBS-EP [10 mM HEPES, 150 mM Sodium Chloride, 3 mM EDTA, 0.005% Polysorbate 20].
(§2) Duplicate injections of each ligand concentration are injected at 30 μL/min for 300 seconds followed by a dissociation phase. […] Regeneration is performed by injecting 10 mM glycine pH 1.5 for 30 seconds at 30 μL/min over all flowcell.
(§3) Reference-subtracted data are collected as Fc2-Fc1. The measurements are obtained at 25° C. The on-rate (kₒₙ) and off-rate (koff) for each ligand are evaluated using a “1:1 (Langmuir) Binding” binding model. The affinity (KD) is calculated from the binding kinetics according to the relationship: KD=koff/kₒₙ.

[3] = target: T2, Mouse Epiregulin (mouse (Mus musculus), UniProt Q61521 56-101); assay: as above
Procedure: as §1, §2, §3

[4] = target: T1, Mouse TGF-alpha; assay: SPR (Biacore), antibody captured on chip, ligand injected, KD = koff/kon, 25 C
Procedure: as §1, §2, §3

[5] = target: T2, Mouse Epiregulin; assay: as above
Procedure: as §1, §2, §3

[6] = target: Human TGF-alpha (human, UniProt P01135 40-89); assay: cell-based or functional assay
[7] = target: T3, Met-human Epiregulin (human, UniProt O14944 63-108); assay: cell-based or functional assay
[8] = target: T4, Rat TGF-alpha (rat, UniProt P01134 39-88); assay: cell-based or functional assay
[9] = target: T2, Mouse Epiregulin; assay: cell-based or functional assay
[10] = target: T3, Met-human Epiregulin; assay: SPR (Biacore), antibody captured via anti-Fc on chip, ligand injected, KD = koff/kon, 25 C
Procedure: as §1
(§4) Duplicate injections of each ligand concentration are injected at 30 μL/min for 300 seconds followed by a dissociation phase. […] Regeneration is performed by injecting 10 mM glycine pH 1.5 for 3×20 seconds at 30 μL/min over all flowcell.
as §3

[11] = target: T5, Cynomolgus Epiregulin (cynomolgus (Macaca fascicularis), UniProt O14944 63-108 (human entry)); assay: as above
T5 construct: also called cynomolgus monkey epiregulin
Procedure: as §1, §4, §3

[12] = target: T4, Rat TGF-alpha; assay: as above
Procedure: as §1, §4, §3

[13] = target: T2, Mouse Epiregulin; assay: as above
Procedure: as §1, §4, §3

[14] = target: cynomolgus monkey epigen (cynomolgus monkey, UniProt G7P5K4 23-110); assay: cell-based or functional assay
[15] = target: rat epigen (rat); assay: cell-based or functional assay
[16] = target: T3, Met-human Epiregulin; assay: cell-based or functional assay; remark: listed apart in the source
[17] = target: T5, Cynomolgus Epiregulin; assay: cell-based or functional assay
[18] = target: T1, Mouse TGF-alpha; assay: cell-based or functional assay
[19] = target: T4, Rat TGF-alpha; assay: cell-based or functional assay; remark: listed apart in the source
[20] = target: rat epiregulin (rat, UniProt Q9Z0L5 56-101, limits assumed); assay: cell-based or functional assay
[21] = target: T2, Mouse Epiregulin; assay: cell-based or functional assay; remark: listed apart in the source
[22] = target: Human HBEGF (human, UniProt Q99075 63-148); assay: cell-based or functional assay
[23] = target: T6, Human Amphiregulin (human, UniProt P15514 101-187); assay: cell-based or functional assay
T6 sequence: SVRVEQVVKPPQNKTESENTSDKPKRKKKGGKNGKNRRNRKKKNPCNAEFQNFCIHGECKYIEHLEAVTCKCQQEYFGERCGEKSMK

[24] = target: T7, Human Betacellulin (human, UniProt P35070 32-111); assay: cell-based or functional assay
T7 sequence: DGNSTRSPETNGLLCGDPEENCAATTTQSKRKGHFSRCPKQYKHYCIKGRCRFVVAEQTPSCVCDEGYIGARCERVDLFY

[25] = target: Human EGF (human, UniProt P01133 971-1023); assay: cell-based or functional assay

Kd [1]: 365 nM | koff [2]: 2.02e-05 s⁻¹ | kon [2]: 541000 M⁻¹ s⁻¹ | koff [3]: 0.0141 s⁻¹ | kon [3]: 65500 M⁻¹ s⁻¹ | Kd [4]: 0.038 nM | Kd [5]: 215 nM | IC50, neutralization of ligand-stimulated MFc7 cell proliferation (BrDU incorporation) [6]: 0.52 nM | IC50, neutralization of ligand-stimulated MFc7 cell proliferation (BrDU incorporation) [7]: 1.12 nM | IC50, neutralization of ligand-stimulated MFc7 cell proliferation (BrDU incorporation), ligand at 0.5 nM [8]: 0.13 nM | IC50, neutralization of ligand-stimulated MFc7 cell proliferation (BrDU incorporation), ligand at 0.5 nM [9]: 214 nM
B1: Antibody III (antibody, mouse IgG1, kappa, V domains shown)
VH: QVQLQQSGPELVKPGASVKISCKASGYTFTDAYINWVKQRPGQGLEWIGWIWPGPVITYYNPKFKGKATLTVDKSSSTAYMLLSSLTSEDSAFYFCARREVLSPFAYWGQGTLVTVSA
VL: DVLMTQTPLSLPVSLGDQASISCRSSQSIVHSTGNTYLEWYLQKPGQSPKLLIYKVSNRFSGVPDRFSGSGSGTDFTLKISRVEAEDLGVYYCFHGTHVPYTFGGGTKLEIKR
notes: Mouse monoclonal antibody with the same CDRs as Antibody I; also called mouse antibody

Kd [10]: 1.29 nM | Kd [11]: 1.05 nM | Kd [12]: 0.0705 nM | Kd [13]: 342 nM | IC50, neutralization of ligand-stimulated myofibroblast proliferation [14]: < 850 nM | IC50, neutralization of ligand-stimulated myofibroblast proliferation [15]: < 850 nM | IC50, neutralization of ligand-stimulated myofibroblast proliferation [16]: < 3.5 nM | IC50, neutralization of ligand-stimulated myofibroblast proliferation [17]: < 3.5 nM | IC50, neutralization of ligand-stimulated myofibroblast proliferation [18]: < 0.5 nM | IC50, neutralization of ligand-stimulated myofibroblast proliferation [19]: < 0.5 nM | IC50, neutralization of ligand-stimulated myofibroblast proliferation [20]: < 350 nM | IC50, neutralization of ligand-stimulated myofibroblast proliferation [21]: < 350 nM | IC50, neutralization of ligand-stimulated MFc7 cell proliferation (BrDU incorporation), ligand at 0.5 nM [22]: > 2000 nM | IC50, neutralization of ligand-stimulated MFc7 cell proliferation (BrDU incorporation), ligand at 60 nM [23]: > 2000 nM | IC50, neutralization of ligand-stimulated MFc7 cell proliferation (BrDU incorporation), ligand at 0.5 nM [24]: > 2000 nM | IC50, neutralization of ligand-stimulated MFc7 cell proliferation (BrDU incorporation), ligand at 0.5 nM [7]: 3.15 nM | IC50, neutralization of ligand-stimulated MFc7 cell proliferation (BrDU incorporation), ligand at 0.5 nM [8]: 0.19 nM | IC50, neutralization of ligand-stimulated MFc7 cell proliferation (BrDU incorporation), ligand at 0.5 nM [25]: > 2000 nM | IC50, neutralization of ligand-stimulated MFc7 cell proliferation (BrDU incorporation), ligand at 0.5 nM [9]: 334 nM
B2: Antibody I (antibody, human IgG4 S228P, kappa, F234A L235A, V domains shown)
VH: QVQLVQSGAEVKKPGSSVKVSCKASGYTFTDAYINWVRQAPGQGLEWMGWIWPGPVITYYNPKFKGRVTITADKSTSTAYMELSSLRSEDTAVYYCARREVLSPFAYWGQGTTVTVSS
VL: DIVMTQSPDSLAVSLGERATINCRSSQSIVHSTGNTYLEWYQQKPGQPPKLLIYKVSNRFSGVPDRFSGSGSGTDFTLTISSLQAEDVAVYYCFHGTHVPYTFGGGTKVEIKR
notes: Humanized IgG4 monoclonal antibody
